Data reported in the MegaScale stability set (Tsuboyama et al. 2023).

B1: EEHEE_rd4_0003 (parent)
chain: KKVTINGVEIKFNNPEEAVKFALELAKRLNLRIEFHGDQIKIE

Variants of: B1
Assay: folding stability dG (cDNA display proteolysis); higher = more stable
Conditions: PBS, room temperature

Variant	folding stability dG
KKVTINGVEIKFNNPDEAVKFALELAKRLNLRIEFHGDQIKIE [E16D]	2.53 kcal/mol
KKVTINGVEIKFNNPFEAVKFALELAKRLNLRIEFHGDQIKIE [E16F]	2.69 kcal/mol
KKVTINGVEIKFNNPGEAVKFALELAKRLNLRIEFHGDQIKIE [E16G]	2.48 kcal/mol
KKVTINGVEIKFNNPHEAVKFALELAKRLNLRIEFHGDQIKIE [E16H]	2.47 kcal/mol
KKVTINGVEIKFNNPIEAVKFALELAKRLNLRIEFHGDQIKIE [E16I]	2.59 kcal/mol
KKVTINGVEIKFNNPKEAVKFALELAKRLNLRIEFHGDQIKIE [E16K]	2.48 kcal/mol
KKVTINGVEIKFNNPLEAVKFALELAKRLNLRIEFHGDQIKIE [E16L]	2.69 kcal/mol
KKVTINGVEIKFNNPMEAVKFALELAKRLNLRIEFHGDQIKIE [E16M]	2.66 kcal/mol
KKVTINGVEIKFNNPNEAVKFALELAKRLNLRIEFHGDQIKIE [E16N]	2.43 kcal/mol
KKVTINGVEIKFNNPPEAVKFALELAKRLNLRIEFHGDQIKIE [E16P]	2.08 kcal/mol
KKVTINGVEIKFNNPQEAVKFALELAKRLNLRIEFHGDQIKIE [E16Q]	2.6 kcal/mol
KKVTINGVEIKFNNPREAVKFALELAKRLNLRIEFHGDQIKIE [E16R]	2.6 kcal/mol
KKVTINGVEIKFNNPSEAVKFALELAKRLNLRIEFHGDQIKIE [E16S]	2.54 kcal/mol
KKVTINGVEIKFNNPTEAVKFALELAKRLNLRIEFHGDQIKIE [E16T]	2.46 kcal/mol
KKVTINGVEIKFNNPVEAVKFALELAKRLNLRIEFHGDQIKIE [E16V]	2.53 kcal/mol
KKVTINGVEIKFNNPWEAVKFALELAKRLNLRIEFHGDQIKIE [E16W]	2.99 kcal/mol
KKVTINGVEIKFNNPYEAVKFALELAKRLNLRIEFHGDQIKIE [E16Y]	2.7 kcal/mol
KKVTINGVEIKFNNPEAAVKFALELAKRLNLRIEFHGDQIKIE [E17A]	2.68 kcal/mol
KKVTINGVEIKFNNPECAVKFALELAKRLNLRIEFHGDQIKIE [E17C]	4.22 kcal/mol
KKVTINGVEIKFNNPEDAVKFALELAKRLNLRIEFHGDQIKIE [E17D]	2.68 kcal/mol

Variant	folding stability dG
KKVTINGVEIKFNNPEFAVKFALELAKRLNLRIEFHGDQIKIE [E17F]	2.36 kcal/mol
KKVTINGVEIKFNNPEGAVKFALELAKRLNLRIEFHGDQIKIE [E17G]	2.2 kcal/mol
KKVTINGVEIKFNNPEHAVKFALELAKRLNLRIEFHGDQIKIE [E17H]	2.23 kcal/mol
KKVTINGVEIKFNNPEIAVKFALELAKRLNLRIEFHGDQIKIE [E17I]	2.36 kcal/mol
KKVTINGVEIKFNNPEKAVKFALELAKRLNLRIEFHGDQIKIE [E17K]	2.3 kcal/mol
KKVTINGVEIKFNNPELAVKFALELAKRLNLRIEFHGDQIKIE [E17L]	2.56 kcal/mol
KKVTINGVEIKFNNPEMAVKFALELAKRLNLRIEFHGDQIKIE [E17M]	2.49 kcal/mol
KKVTINGVEIKFNNPENAVKFALELAKRLNLRIEFHGDQIKIE [E17N]	2.24 kcal/mol
KKVTINGVEIKFNNPEPAVKFALELAKRLNLRIEFHGDQIKIE [E17P]	1.9 kcal/mol
KKVTINGVEIKFNNPEQAVKFALELAKRLNLRIEFHGDQIKIE [E17Q]	2.48 kcal/mol
KKVTINGVEIKFNNPERAVKFALELAKRLNLRIEFHGDQIKIE [E17R]	2.16 kcal/mol
KKVTINGVEIKFNNPESAVKFALELAKRLNLRIEFHGDQIKIE [E17S]	2.39 kcal/mol
KKVTINGVEIKFNNPETAVKFALELAKRLNLRIEFHGDQIKIE [E17T]	2.26 kcal/mol
KKVTINGVEIKFNNPEVAVKFALELAKRLNLRIEFHGDQIKIE [E17V]	2.25 kcal/mol
KKVTINGVEIKFNNPEWAVKFALELAKRLNLRIEFHGDQIKIE [E17W]	2.84 kcal/mol
KKVTINGVEIKFNNPEYAVKFALELAKRLNLRIEFHGDQIKIE [E17Y]	2.56 kcal/mol
KKVTINGVEIKFNNPEECVKFALELAKRLNLRIEFHGDQIKIE [A18C]	3.5 kcal/mol
KKVTINGVEIKFNNPEEDVKFALELAKRLNLRIEFHGDQIKIE [A18D]	1.41 kcal/mol
KKVTINGVEIKFNNPEEEVKFALELAKRLNLRIEFHGDQIKIE [A18E]	1.47 kcal/mol
KKVTINGVEIKFNNPEEFVKFALELAKRLNLRIEFHGDQIKIE [A18F]	2.79 kcal/mol

Variant	folding stability dG
KKVTINGVEIKFNNPEEGVKFALELAKRLNLRIEFHGDQIKIE [A18G]	2.01 kcal/mol
KKVTINGVEIKFNNPEEHVKFALELAKRLNLRIEFHGDQIKIE [A18H]	1.7 kcal/mol
KKVTINGVEIKFNNPEEIVKFALELAKRLNLRIEFHGDQIKIE [A18I]	2.45 kcal/mol
KKVTINGVEIKFNNPEEKVKFALELAKRLNLRIEFHGDQIKIE [A18K]	1.52 kcal/mol
KKVTINGVEIKFNNPEELVKFALELAKRLNLRIEFHGDQIKIE [A18L]	2.59 kcal/mol
KKVTINGVEIKFNNPEEMVKFALELAKRLNLRIEFHGDQIKIE [A18M]	2.47 kcal/mol
KKVTINGVEIKFNNPEENVKFALELAKRLNLRIEFHGDQIKIE [A18N]	1.75 kcal/mol
KKVTINGVEIKFNNPEEPVKFALELAKRLNLRIEFHGDQIKIE [A18P]	1.64 kcal/mol
KKVTINGVEIKFNNPEEQVKFALELAKRLNLRIEFHGDQIKIE [A18Q]	1.61 kcal/mol
KKVTINGVEIKFNNPEERVKFALELAKRLNLRIEFHGDQIKIE [A18R]	1.72 kcal/mol
KKVTINGVEIKFNNPEESVKFALELAKRLNLRIEFHGDQIKIE [A18S]	1.93 kcal/mol
KKVTINGVEIKFNNPEETVKFALELAKRLNLRIEFHGDQIKIE [A18T]	1.88 kcal/mol
KKVTINGVEIKFNNPEEVVKFALELAKRLNLRIEFHGDQIKIE [A18V]	2.48 kcal/mol
KKVTINGVEIKFNNPEEWVKFALELAKRLNLRIEFHGDQIKIE [A18W]	2.78 kcal/mol
KKVTINGVEIKFNNPEEYVKFALELAKRLNLRIEFHGDQIKIE [A18Y]	2.36 kcal/mol
KKVTINGVEIKFNNPEEAAKFALELAKRLNLRIEFHGDQIKIE [V19A]	2.19 kcal/mol
KKVTINGVEIKFNNPEEACKFALELAKRLNLRIEFHGDQIKIE [V19C]	3.56 kcal/mol
KKVTINGVEIKFNNPEEADKFALELAKRLNLRIEFHGDQIKIE [V19D]	1.61 kcal/mol
KKVTINGVEIKFNNPEEAEKFALELAKRLNLRIEFHGDQIKIE [V19E]	2.04 kcal/mol
